Measurements as given in US20140199315A1 (Biogen, published 2014).
Changes are numbered by the printed parent chain.

How the values were obtained:
[1] = target: human Sp35 protein expressed on transfected cells (human) (UniProt Q96FE5); assay: FACS on live human LINGO-1 (Sp35) transfected 293 cells, PE-labelled secondary antibody alone (no primary antibody), FL2-H
[2] = target: T1, mouse Sp35 protein (form in the assay not stated) (mouse, UniProt Q9D1T0 36-532, limits assumed); assay: method not stated (Example 5); KD determination (Example 5, method not stated), murine Sp35
T1 construct: also called mSp35; murine Sp35
T1 sequence (looked up): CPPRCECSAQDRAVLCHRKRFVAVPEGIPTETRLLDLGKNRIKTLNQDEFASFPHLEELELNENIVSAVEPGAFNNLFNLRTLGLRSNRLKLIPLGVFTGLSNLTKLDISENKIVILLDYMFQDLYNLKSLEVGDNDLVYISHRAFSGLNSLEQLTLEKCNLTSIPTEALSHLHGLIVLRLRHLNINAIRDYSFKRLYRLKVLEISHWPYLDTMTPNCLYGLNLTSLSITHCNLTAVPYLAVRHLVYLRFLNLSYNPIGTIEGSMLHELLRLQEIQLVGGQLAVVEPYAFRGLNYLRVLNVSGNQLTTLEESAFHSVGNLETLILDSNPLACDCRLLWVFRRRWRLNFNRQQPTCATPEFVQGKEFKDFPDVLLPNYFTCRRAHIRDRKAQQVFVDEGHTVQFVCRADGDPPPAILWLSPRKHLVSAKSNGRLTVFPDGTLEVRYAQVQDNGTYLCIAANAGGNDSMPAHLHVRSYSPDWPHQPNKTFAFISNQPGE

[3] = target: T2, full-length murine Sp35 with HA tag, from lysate of transfected cells (mouse, UniProt Q9D1T0 34-614, limits assumed); assay: immunoprecipitation
T2 construct: also called mSp35 (immunoprecipitation); not shown: HA tag
T2 sequence (looked up): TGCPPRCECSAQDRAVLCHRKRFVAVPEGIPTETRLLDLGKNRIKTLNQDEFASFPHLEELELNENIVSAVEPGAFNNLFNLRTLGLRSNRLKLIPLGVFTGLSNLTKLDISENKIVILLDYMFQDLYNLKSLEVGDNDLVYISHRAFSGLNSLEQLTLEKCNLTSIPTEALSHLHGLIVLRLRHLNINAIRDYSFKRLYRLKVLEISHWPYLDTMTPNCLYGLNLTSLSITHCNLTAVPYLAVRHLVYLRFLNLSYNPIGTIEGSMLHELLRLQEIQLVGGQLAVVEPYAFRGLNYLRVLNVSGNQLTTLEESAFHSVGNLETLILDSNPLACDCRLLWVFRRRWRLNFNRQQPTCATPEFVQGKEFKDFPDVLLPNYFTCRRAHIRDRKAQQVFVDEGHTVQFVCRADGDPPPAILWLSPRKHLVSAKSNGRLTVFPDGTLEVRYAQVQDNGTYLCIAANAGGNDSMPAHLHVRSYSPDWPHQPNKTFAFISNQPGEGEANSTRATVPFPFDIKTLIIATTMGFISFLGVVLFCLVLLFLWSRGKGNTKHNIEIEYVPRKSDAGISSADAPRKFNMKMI
Protocol: (§1) To perform the immunoprecipitation, COS-1 cells expressing Sp35, fused to a hemaglutinin (HA) tag on the N-terminus, were produced by transiently transfecting COS-1 cells with a DNA construct which expresses the full-length Sp35 protein with an HA tag. Cells were harvested 48 hr after transfection and were lysed in 1 ml lysis buffer (50 mM HEPES, pH 7.5, 150 mM NaCl, 1.5 mM MgCl₂, 1 mM EGTA, 1% Triton X-100 and 10% glycerol) for 30 min at 4° C. After centrifugation at 14,000×g for 15 min, the supernatants were incubated with ProteinA/G-Sepharose beads (Santa Cruz) at 4° C. for 1 hr, and then incubated at 4° C. for 1 hr with either the 1A7 or the 2F3 anti-Sp35 murine monoclonal antibodies. The beads were washed 3 times with lysis buffer, boiled in Laemmli sample buffer, subjected to 4-20% SDS-PAGE, and analyzed by Western blotting using an antibody which recognizes the HA tag. As shown on the SDS-PAGE gel, monoclonal antibodies 1A7 and 2F3, immunoprecipitated human and murine Sp35 (FIG. 1). […] Similarly, monoclonal antibodies 1G7, 2B10, 2F3, 3P4C2.2D2, 3P4C8.2G9, Li01, Li03, Li05, Li06, Li07, Li08, Li11 and Li12 immunoprecipitate human or mouse or human and mouse Sp35 (See Table 3B). Additionally, Li08 immunoprecipitates AP-Sp35 and monoclonal antibodies 1B6.4 and 3E3.1 immunoprecipitate endogenous Sp35 (See Table 3B).

[4] = target: T3, mouse Sp35 protein expressed on transfected cells (mouse, UniProt Q9D1T0 36-614); assay: FACS
T3 construct: whole, on cells; also called mSp35
T3 sequence (looked up): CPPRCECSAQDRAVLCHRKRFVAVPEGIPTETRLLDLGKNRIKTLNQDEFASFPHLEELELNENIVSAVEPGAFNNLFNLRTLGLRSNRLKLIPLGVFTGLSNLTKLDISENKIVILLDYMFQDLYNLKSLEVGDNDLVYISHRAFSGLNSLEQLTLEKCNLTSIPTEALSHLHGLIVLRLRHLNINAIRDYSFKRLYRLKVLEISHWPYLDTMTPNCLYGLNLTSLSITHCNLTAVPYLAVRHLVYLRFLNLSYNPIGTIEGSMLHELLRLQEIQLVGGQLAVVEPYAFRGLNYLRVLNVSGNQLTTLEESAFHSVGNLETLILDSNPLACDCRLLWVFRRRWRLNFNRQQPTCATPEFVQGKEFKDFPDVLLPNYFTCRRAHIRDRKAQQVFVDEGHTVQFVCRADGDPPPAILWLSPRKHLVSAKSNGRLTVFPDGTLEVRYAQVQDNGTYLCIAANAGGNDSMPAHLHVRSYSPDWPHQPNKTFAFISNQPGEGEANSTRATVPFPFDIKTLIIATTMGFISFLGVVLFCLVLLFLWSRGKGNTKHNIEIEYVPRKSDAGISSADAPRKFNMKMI
Source text: To further characterize the binding properties of hybridoma-derived anti-Sp35 mAbs 1A7 and 2F3 produced as described in Example 3, binding to both fixed and live COS-7 or 293 cells expressing mouse or human Sp35 was compared.

[5] = target: T4, full-length human Sp35 with N-terminal hemagglutinin (HA) tag, from lysate of transfected COS-1 cells (human, UniProt Q96FE5 40-620); assay: immunoprecipitation
T4 construct: also called huSp35 (immunoprecipitation); not shown: HA tag at the N-terminus
T4 sequence: T2 sequence (looked up) with G261S, A315V, H386R
Protocol: as §1

[6] = target: T5, Sp35-Fc fusion protein (human Sp35 residues 1-532 fused to hinge and Fc of human IgG1) (human, UniProt Q96FE5 40-538); assay: ELISA
T5 construct: also called LINGO-1-Fc; not shown: hinge and Fc region of human IgG1
T5 sequence: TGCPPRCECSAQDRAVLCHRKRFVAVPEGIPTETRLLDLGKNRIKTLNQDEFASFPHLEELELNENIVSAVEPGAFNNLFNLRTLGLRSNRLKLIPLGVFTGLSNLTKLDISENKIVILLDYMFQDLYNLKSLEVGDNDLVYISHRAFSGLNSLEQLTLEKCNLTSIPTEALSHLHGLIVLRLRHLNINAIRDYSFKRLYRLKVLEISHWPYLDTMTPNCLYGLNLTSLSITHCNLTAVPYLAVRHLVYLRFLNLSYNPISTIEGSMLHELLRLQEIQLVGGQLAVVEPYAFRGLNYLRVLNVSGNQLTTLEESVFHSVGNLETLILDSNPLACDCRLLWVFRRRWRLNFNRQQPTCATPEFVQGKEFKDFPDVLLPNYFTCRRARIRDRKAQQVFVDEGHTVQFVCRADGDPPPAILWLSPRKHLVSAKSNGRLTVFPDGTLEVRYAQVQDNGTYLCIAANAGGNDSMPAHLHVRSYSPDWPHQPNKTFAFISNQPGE

[7] = target: T6, Sp35 fragment amino acids 34-532 of SEQ ID NO:2 fused to hinge and Fc of IgG1 (human, UniProt Q96FE5 40-538); assay: ELISA
T6 construct: the mature proteins should be the same; not shown: hinge and Fc regions of IgG1
T6 sequence: T5 sequence

[8] = target: T7, Sp35 polypeptide consisting of amino acids 34-534 of human Sp35 (human, UniProt Q96FE5 40-540); assay: similar experiments (ELISA)
T7 construct: No fusion partner stated
T7 sequence: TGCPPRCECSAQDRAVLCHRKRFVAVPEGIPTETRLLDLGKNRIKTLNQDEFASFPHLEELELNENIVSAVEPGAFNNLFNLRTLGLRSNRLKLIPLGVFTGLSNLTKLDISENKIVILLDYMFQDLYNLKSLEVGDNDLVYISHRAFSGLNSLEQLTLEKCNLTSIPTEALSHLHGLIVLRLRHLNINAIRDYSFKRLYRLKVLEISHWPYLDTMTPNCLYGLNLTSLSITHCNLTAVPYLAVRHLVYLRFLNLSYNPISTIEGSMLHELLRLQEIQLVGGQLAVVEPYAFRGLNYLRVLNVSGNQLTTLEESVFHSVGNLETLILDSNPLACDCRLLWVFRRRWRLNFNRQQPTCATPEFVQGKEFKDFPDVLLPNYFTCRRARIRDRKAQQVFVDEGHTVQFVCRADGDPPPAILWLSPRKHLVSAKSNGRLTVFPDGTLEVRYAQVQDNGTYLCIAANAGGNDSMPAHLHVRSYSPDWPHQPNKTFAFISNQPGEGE

2nd Ab only (antibody)
(FL2-H) Geom. Mean [1]: 6.6
(FL2-H) Mean [1]: 8.78
(FL2-H) Median [1]: 6.76
fraction of cells in the marker gate (FL2-H histogram) [1]: 5.52

B1: 1A7 (antibody, V domains shown)
VH: QVQLVQSGPELKKPGETVKISCKASGYTFTNYGMNWVKQAPGKGLKWMGWINTDTGEPTYTEDFQGRFAFSLETSASTVYLQFNNLKNEDTATYFCAREGVHFDYWGQGTTVTVSS
VL: QIVLTQSPAIMSASPGEKVTMTCSASSSVSYMHWYQQKSGTSPKRWIYDTSKLASGVPARFSGSGSGTSYSLTISSMEAEDAATYYCQQWSSNPFTFGSGTKLEIK
notes: murine hybridoma monoclonal antibody; also called monoclonal antibody 1A7; MAb 1A7
Kd [2]: 20 µM

B2: 2F3 (antibody, V domains shown)
VH: EVKLEESGGGLVQPGGSMKLSCAASGFTFSDAWLDWVRQSPEKGLEWVAEIRSKANNHATNYAESVKGRFTISRDDSKSSVYLQMNSLRAEDTGIYFCTPSFAYWGQGTTVTVSS
VL: DIQMTQSPASLSASVGETVTITCRASGNIYNYLAWFQQKQGKSPQLLVYNAKTLPDGVPSRFSGSGSGTQYFLKINSLQPEDFGSYYCQHFWAIPYTFGGGTKLEIKR
notes: murine hybridoma monoclonal antibody; also called monoclonal antibody 2F3; MAb 2F3
binding result [3]: binds
binding result [4]: binds

B3: 3P1D10.2C3 (antibody, V domains shown)
VH: QVQLQQSGAELARPGASVKLSCRASGYTFTSSWTQWVKQRPGQGLEWIGAIYPGDGDTRYTQKFKGKATLTADKSSSTAYMQLSSLASEDSAVYYCARHNSYGMDYWGQGTSVTVSS
VL: DIVMTQSPSSLTVTAGEKVTMSCKSSQSLLNSGNQKNYLTWYQQKPGQPPKLLIYWASTRESGVPDRFTGSGSGTDFTLTINSVQAEDLAVYYCQNDYSYPLFTFGSGTKLEIR
notes: murine hybridoma monoclonal antibody
binding result [5]: binds
binding result [6]: binds
binding result [7]: binds
binding result [8]: binds

B4: 3P1E11.3B7 (antibody, V domains shown)
VH: B3 VH
VL: B3 VL with N37S
binding result [5]: binds
binding result [6]: binds
binding result [7]: binds
binding result [8]: binds
